Reference: US20230125550A1 (ARCELLX, published 2023)
Numbering of substitutions follows the chain as printed.

T1: recombinant human CD123-Fc (human, UniProt P26951 19-305)
T1 construct: not shown: Fc part of CD123-Fc
T1 sequence: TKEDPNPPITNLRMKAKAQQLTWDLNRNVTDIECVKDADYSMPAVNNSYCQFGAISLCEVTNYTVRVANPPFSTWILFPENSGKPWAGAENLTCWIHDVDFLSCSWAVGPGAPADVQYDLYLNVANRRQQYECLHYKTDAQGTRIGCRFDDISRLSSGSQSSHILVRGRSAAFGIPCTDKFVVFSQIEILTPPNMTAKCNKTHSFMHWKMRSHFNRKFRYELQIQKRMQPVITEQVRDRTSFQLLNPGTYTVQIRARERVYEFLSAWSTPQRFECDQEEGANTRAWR

T2: AFP p26 (human, UniProt P02771 381-609)
T2 construct: The construct used is not described
T2 sequence: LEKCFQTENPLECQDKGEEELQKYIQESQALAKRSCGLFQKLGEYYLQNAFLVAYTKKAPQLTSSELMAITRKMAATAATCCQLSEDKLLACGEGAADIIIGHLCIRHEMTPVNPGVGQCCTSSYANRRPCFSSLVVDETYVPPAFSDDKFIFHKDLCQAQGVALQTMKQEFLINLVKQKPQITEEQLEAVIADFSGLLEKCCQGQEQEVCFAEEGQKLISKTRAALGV

B1: SEQ ID NO: 624 (designed binder)
chain: MGSWHEFWQRLEAIEGRLWALGGSEAELADFESLIADFEEQLQEYKGKGNPEVEALMAEAEAIDNELRAYRHN
notes: D domain, on phage
B2: SEQ ID NO: 617 (designed binder)
chain: MGSWDEFAMRLEAIQARLFALGGSEAELAIFEDEIAFFETMLQDYKGKGNPEVEALEYEAAAIEAELGAYRHN
notes: D domain, on phage
B3: SEQ ID NO 747 (designed binder)
chain: MGSWKEFIQRLDAIHYRLWALGGSEAELAAFEKEIAAFESELQAYKGKGNPEVEYLRFVAAFIRFELQAYRHN
B4: SEQ ID NO 748 (designed binder)
chain: B3 chain with K5S, Q9F, Y16S, W19Q, V59I, F62E, F65L, E66K
B5: SEQ ID NO: 623 (designed binder)
chain: MGSWFEFETRLEAIDLRLWALGGSEAELATFEDVIAFFEDWLQFYKGKGNPEVEALKMEAWAIGEELHAYRHN
notes: D domain, on phage
B6: SEQ ID NO: 613 (designed binder)
chain: MGSWYEFMGRLEAIDERLQALGGSEAELAWFEHEIAEFEWSLQWYKGKGNPEVEALRFEAGAIPWELWAYRHN
notes: D domain, on phage
B7: SEQ ID NO: 615 (designed binder)
chain: MGSWEEFHMRLIAIDERLWALGGSEAELAGFEESIAYFESQLQDYKGKGNPEVEALDYEAHAIWRELYAYRHN
notes: D domain, on phage
B8: SEQ ID NO 741 (designed binder)
chain: MGSWHEFYDRLDAIYFRLWALGGSEAELAAFEKEIAAFESELQAYKGKGNPEVELLRLLAAEIRKELQAYRHN
B9: SEQ ID NO 744 (designed binder)
chain: MGSWVEFSGRLIAIDNRLWALGGSEAELAAFEKEIAAFESELQAYKGKGNPEVEYLRMWAAEIRYILQAYRHN
B10: SEQ ID NO 746 (designed binder)
chain: B3 chain with K5H, I8M, Q9E, D12I, H15D, Y16G, F65D, E66V
B11: SEQ ID NO 743 (designed binder)
chain: B9 chain with V5M, S8F, G9D, I12V, N16E, Y65F, I66L
B12: SEQ ID NO 742 (designed binder)
chain: B9 chain with V5H, S8I, G9T, I12E, N16Q, M58F, Y65F
B13: SEQ ID NO 745 (designed binder)
chain: B9 chain with S8H, G9H, I12F, N16E, W59V
B14: SEQ ID NO: 626 (designed binder)
chain: MGSWYEFENRLFAIEERLWALGGSEAELAWFEYEIANFEWGLQSYKGKGNPEVEALDNEAEAIDIELAAYRHN
notes: D domain, on phage
B15: SEQ ID NO: 618 (designed binder)
chain: MGSWWEFNARLDAIEDRLMALGGSEAELAYFEDIIASFENILQQYKGKGNPEVEALWYEAYAIEKELNAYRHN
notes: D domain, on phage
B16: SEQ ID NO: 619 (designed binder)
chain: MGSWIEFWNRLEAIEERLYALGGSEAELAYFEDEIAEFEIYLQQYKGKGNPEVEALKHEAEAINKELMAYRHN
notes: D domain, on phage
B17: SEQ ID NO: 621 (designed binder)
chain: MGSWYEFLARLYAIDERLWALGGSEAELATFEHWIADFEEQLQSYKGKGNPEVEALTDEAVAIGEELSAYRHN
notes: D domain, on phage
B18: SEQ ID NO 777 (designed binder)
chain: MGSWTEFWHRLEAIDSRLWALGGSEAELAAFEKEIAAFESELQAYKGKGNPEVESLREHAAHIRVWLQAYRHN
B19: SEQ ID NO 788 (designed binder)
chain: B18 chain with T5L, W8H, H9S, E12D, S16T, S55K, H62A, V65H, W66Y
B20: SEQ ID NO 779 (designed binder)
chain: B18 chain with T5S, W8F, H9K, S16R, S55E
B21: SEQ ID NO 787 (designed binder)
chain: B18 chain with T5S, W8H, H9T, E12D, S16T, S55D, E58R, H62A, V65F
B22: SEQ ID NO 749 (designed binder)
chain: B18 chain with T5F, W8Y, H9D, E12N, S16A, S55N, E58V, H62A, V65E
B23: SEQ ID NO 780 (designed binder)
chain: B18 chain with T5Y, W8Q, H9Q, S16T, S55E, V65H
B24: SEQ ID NO 771 (designed binder)
chain: B9 chain with S8V, I12N, N16A, Y55E, M58H, W59H, Y65N, I66W
B25: SEQ ID NO 784 (designed binder)
chain: B18 chain with W8V, H9N, E12Y, S55G, E58T, H62K, V65H
B26: SEQ ID NO 776 (designed binder)
chain: B18 chain with T5Y, W8R, H9A, E12L, S16E, S55H, V65N, W66F
B27: SEQ ID NO 758 (designed binder)
chain: B18 chain with T5L, W8Y, E12N, E58D, V65E
B28: SEQ ID NO 786 (designed binder)
chain: B18 chain with T5V, W8V, H9S, E12Y, S16F, S55A, H62Q, V65D
B29: SEQ ID NO 778 (designed binder)
chain: B18 chain with W8Q, H9N, E12N, S16H, H62K
B30: SEQ ID NO 782 (designed binder)
chain: B18 chain with W8H, H9Q, E12D, S16E, S55F, H62K, V65M
B31: SEQ ID NO 767 (designed binder)
chain: B18 chain with T5I, W8Y, H9W, S16Q, S55D, E58V, H62A, V65W
B32: SEQ ID NO 768 (designed binder)
chain: B18 chain with T5S, W8V, H9K, E12D, S16Q, E58V, H62A, V65A
B33: SEQ ID NO 785 (designed binder)
chain: B18 chain with T5M, W8V, H9D, E12S, S16R, S55V, H62N, V65Q
B34: SEQ ID NO 766 (designed binder)
chain: B18 chain with T5F, W8Y, H9E, E12N, S55K, E58A, H62S, V65T
B35: SEQ ID NO 781 (designed binder)
chain: B18 chain with W8E, H9K, E12H, S16Y, S55D, H62A, V65H
B36: SEQ ID NO 770 (designed binder)
chain: B18 chain with T5V, W8H, H9Y, E12Q, S16A, S55E, E58V, V65K
B37: SEQ ID NO 775 (designed binder)
chain: B18 chain with T5Y, W8Y, H9L, E12D, S16H, S55M, V65K
B38: SEQ ID NO 774 (designed binder)
chain: B18 chain with T5Y, W8V, H9V, E12F, S16E, V65S
B39: SEQ ID NO 783 (designed binder)
chain: B18 chain with T5L, W8S, H9Q, E12T, S55N, H62K, V65N
B40: SEQ ID NO 773 (designed binder)
chain: B18 chain with T5N, W8F, H9Q, E12N, S16E, S55D, E58Q, H62N, V65W
B41: SEQ ID NO 772 (designed binder)
chain: MGSWNEFMDRLNAIDNRLWALGGSEAELAAFEKEIAAFESELQAYKGKGNPEVENLRKQAASIRLWLQAYRHN
B42: SEQ ID NO 769 (designed binder)
chain: B18 chain with T5E, W8Y, H9Y, S16A, W19F, S55E, E58V, V65D
B43: SEQ ID NO: 625 (designed binder)
chain: MGSWYEFEQRLEAIEWRLGALGGSEAELATFEEDIADFEEWLQEYKGKGNPEVEALQYEAYAIAEELHAYRHN
notes: D domain, on phage
B44: SEQ ID NO: 620 (designed binder)
chain: MGSWNEFVIRLFAIDDRLYALGGSEAELAWFEDEIATFEYELQRYKGKGNPEVEALEYEAEAIVSELFAYRHN
notes: D domain, on phage
B45: SEQ ID NO: 622 (designed binder)
chain: MGSWLEFETRLHAIDERLWALGGSEAELAEFEEHIAWFEEDLQFYKGKGNPEVEALDFEADAIGWELWAYRHN
notes: D domain, on phage
B46: SEQ ID NO: 616 (designed binder)
chain: MGSWWEFKYRLDAICFRLAALGGSEAELASFEDEIAYFEEDLQGYKGKGNPEVEALDYEALAIWDELAAYRHN
notes: D domain, on phage
B47: SEQ ID NO: 614 (designed binder)
chain: MGSWVEFSNRLDAIWERLQALGGSEAELAYFEWEIAEFEWELQSYKGKGNPEVEALNAEADAIEWELEAYRHN
notes: D domain, on phage

Tests used:
[1] = molecular target: T1, recombinant human CD123-Fc; experiment: phage ELISA, captured CD123-Fc
Outline: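 Phage from BCMA panning colonies were rescued with VCSM13 helper phage and diluted 5× in blocking buffer. Plates coated with anti-human IgG1-Fc captured 5 nM target-Fc or IgG1-Fc, and binding was detected with HRP anti-M13. Ratio = A450 target/A450 IgG1-Fc, averaged over the clone's wells.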

[2] = molecular target: T2, AFP p26; experiment: phage ELISA, A450 target/A450 IgG1-Fc
Outline: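 The ELISA ratio divides target absorbance by IgG1-Fc absorbance and averages this over all screened wells holding a given clone. Phage came from phagemid colonies picked from panning output and were rescued with VCSM13 helper phage in 96-well format. After coating with 1.3 microg/ml goat anti-human IgG1-Fc antibody, wells were loaded with 5 nM recombinant human target or IgG1-Fc, then with 50 microl phage diluted 5× in ELISA blocking buffer, and bound phage were read at 450 nm using HRP-conjugated anti-M13 antibody.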

Row | Binder | ELISA_avg [1] | ELISA_avg [2]
1 | B1 | 7 ratio A450 target/IgG1-Fc | –
2 | B2 | 3.7 ratio A450 target/IgG1-Fc | –
3 | B3 | – | 18.4 ratio
4 | B4 | – | 28.3 ratio
5 | B5 | 6.6 ratio A450 target/IgG1-Fc | –
6 | B6 | 3.5 ratio A450 target/IgG1-Fc | –
7 | B7 | 3.9 ratio A450 target/IgG1-Fc | –
8 | B8 | – | 9.6 ratio
9 | B9 | – | 5.28 ratio
10 | B10 | – | 17.9 ratio
11 | B11 | – | 18.6 ratio
12 | B12 | – | 16.9 ratio
13 | B13 | – | 21.4 ratio
14 | B14 | 3.3 ratio A450 target/IgG1-Fc | –
15 | B15 | 3.4 ratio A450 target/IgG1-Fc | –
16 | B16 | 5.2 ratio A450 target/IgG1-Fc | –
17 | B17 | 4.5 ratio A450 target/IgG1-Fc | –
18 | B18 | – | 13.2 ratio
19 | B19 | – | 30.8 ratio
20 | B20 | – | 30.2 ratio
21 | B21 | – | 23.5 ratio
22 | B22 | – | 5.92 ratio
23 | B23 | – | 27.3 ratio
24 | B24 | – | 26 ratio

Row | Binder | ELISA_avg [1] | ELISA_avg [2]
25 | B25 | – | 16.7 ratio
26 | B26 | – | 20.9 ratio
27 | B27 | – | 19.2 ratio
28 | B28 | – | 29 ratio
29 | B29 | – | 30.5 ratio
30 | B30 | – | 24.4 ratio
31 | B31 | – | 9.4 ratio
32 | B32 | – | 27 ratio
33 | B33 | – | 32.1 ratio
34 | B34 | – | 27.1 ratio
35 | B35 | – | 17.1 ratio
36 | B36 | – | 14.8 ratio
37 | B37 | – | 16 ratio
38 | B38 | – | 18.2 ratio
39 | B39 | – | 30.4 ratio
40 | B40 | – | 28.7 ratio
41 | B41 | – | 10 ratio
42 | B42 | – | 30.3 ratio
43 | B43 | 4.4 ratio A450 target/IgG1-Fc | –
44 | B44 | 3.5 ratio A450 target/IgG1-Fc | –
45 | B45 | 4.6 ratio A450 target/IgG1-Fc | –
46 | B46 | 3.1 ratio A450 target/IgG1-Fc | –
47 | B47 | 5.1 ratio A450 target/IgG1-Fc | –
